Results reported in paper PMC7464140, “Cooperative Regulation of Campylobacter jejuni Heat-Shock Genes by HspR and HrcA” (Microorganisms, 2020).

Biological target: the molecule itself
Experiment: cross-linking; in vitro chemical cross-linking of HrcA and HspR proteins with formaldehyde (Figure S2)

B1: His-tagged HspR (C. jejuni) (natural protein, UniProt Q0P926 1-124, looked up)
chain: MEQHYDEPVYLISVVAKVLSIHPQTLRQYEREGLIEPSRTDGKIRLYSQRDIDRIKLILRLTRDMGINLAGVDVILKLKNQLHEFENLIDELRLELSKQQDKEAASKAVVKHKNSFDLIFYEKK
notes: HspR heat-shock transcriptional repressor of Campylobacter jejuni; Probably strain NCTC11168, the only C. jejuni strain named; also called His-HspR; recombinant His-tagged HspR; source: E. coli BL21 (DE3), pET15b-hspR, purified (Ni2+-NTA)
- stoichiometry N: 2

B2: His-tagged HrcA (C. jejuni) (natural protein, UniProt Q9PPG2 1-264, looked up)
chain: MMKSRDKKDLILESIIQTYLLDNAPIGSNELNSNLCIPASTIRVYLKRLSDEGLITQLHISSGRIPTILTMQNYWQNFWEKEQDKNIHIKNESFLKELSKEFEIYCLVYGGRSLVLKEVLDLNTKFIVLDFEDEELVLKYEKEAWNFLQSLIGLDLSSIEKIALRVHFIDLVEKIASLRQNLICYRSNEERAYQIYQNDEFVKLLDCQIHRHFKESLEFEPLFKEGFMGLKVDAQFLGEDVNIILAGSVYTDYKKILQYIKEAA
notes: HrcA heat-shock transcriptional repressor of Campylobacter jejuni; it could also have been GST-HrcA; also called His-HrcA; recombinant HrcA protein; source: E. coli BL21 (DE3), pET15b-hrcA, purified (Ni2+-NTA)
- stoichiometry N: 2
